Experimental data as given in the RNAGym collection of RNA variant scans (doi:10.7554/elife.80360).

B1: Hammerhead Ribozyme (parent)
chain: ACCGGAUGUGCUUUCCGGUCUGAUGAGUCCGUGAGGACGAAACAG

Variants of: B1
Assay: self-cleavage, relative activity (ratio to wild type); higher = more cleavage; co-transcriptional

With G10A U28C as the variant, how does the self-cleavage read?
Its self-cleavage is 1.37.

Which self-cleavage does the source give for U21G U24A here?
Its self-cleavage is 0.814.

With G18U A37G as the variant, how does the self-cleavage read?
The self-cleavage was 0.629.

With C11U G27C as the variant, how does the self-cleavage read?
The self-cleavage was 0.58.

With G17A G18A as the variant, how does the self-cleavage read?
Its self-cleavage is 0.294.

Which self-cleavage does the source give for C15G G17C here?
The self-cleavage was 0.323.

Which self-cleavage does the source give for U9C C43G here?
Its self-cleavage is 0.274.

With G4A G39U as the variant, how does the self-cleavage read?
The self-cleavage was 0.26.

Which self-cleavage does the source give for G10C G17A here?
Its self-cleavage is 0.926.

With U21A G45A as the variant, how does the self-cleavage read?
Its self-cleavage is 0.329.

With U21A G33C as the variant, how does the self-cleavage read?
Its self-cleavage is 0.584.

With A26U C43U as the variant, how does the self-cleavage read?
Its self-cleavage is 0.382.

With A26U C43A as the variant, how does the self-cleavage read?
Its self-cleavage is 0.33.

For U19A A42G, which self-cleavage is on record?
Its self-cleavage is 0.34.

For G27A C30A, which self-cleavage is on record?
The self-cleavage was 0.529.

For C16U U19A, which self-cleavage is on record?
The self-cleavage was 0.344.

Which self-cleavage does the source give for G5C C11U here?
The self-cleavage was 0.336.

Which self-cleavage does the source give for G5C C11G here?
The self-cleavage was 0.873.

With C20U A44C as the variant, how does the self-cleavage read?
The self-cleavage was 0.376.

With G4C U19C as the variant, how does the self-cleavage read?
The self-cleavage was 0.297.

With C15U G35C as the variant, how does the self-cleavage read?
The self-cleavage was 0.601.

With G25U A26G as the variant, how does the self-cleavage read?
The self-cleavage was 0.298.

For G22A A41C, which self-cleavage is on record?
The self-cleavage was 0.383.

For A1G A26C, which self-cleavage is on record?
The self-cleavage was 0.571.

For G17A G31U, which self-cleavage is on record?
The self-cleavage was 0.788.

Which self-cleavage does the source give for A1U A6C here?
Its self-cleavage is 0.363.

Which self-cleavage does the source give for A6U G18A here?
Its self-cleavage is 0.34.

Which self-cleavage does the source give for U19C G39U here?
The self-cleavage was 0.271.

For A6G C29G, which self-cleavage is on record?
Its self-cleavage is 0.498.

Which self-cleavage does the source give for C16A A37C here?
The self-cleavage was 0.898.

Which self-cleavage does the source give for U9A G22A here?
The self-cleavage was 0.282.

For C15G G22U, which self-cleavage is on record?
The self-cleavage was 0.352.

Which self-cleavage does the source give for C29G A34G here?
The self-cleavage was 0.446.

Which self-cleavage does the source give for G33U A34G here?
Its self-cleavage is 0.752.

Which self-cleavage does the source give for A34G A42C here?
Its self-cleavage is 0.294.

With U9A G35C as the variant, how does the self-cleavage read?
Its self-cleavage is 1.05.

With U9G U13C as the variant, how does the self-cleavage read?
The self-cleavage was 1.04.

With A6C A26C as the variant, how does the self-cleavage read?
The self-cleavage was 0.348.

For G22C G33U, which self-cleavage is on record?
The self-cleavage was 0.374.

With A6C C15U as the variant, how does the self-cleavage read?
Its self-cleavage is 0.659.

For G10A G45A, which self-cleavage is on record?
The self-cleavage was 0.9.

With G5U G35U as the variant, how does the self-cleavage read?
Its self-cleavage is 0.516.

Which self-cleavage does the source give for C15U G17C here?
The self-cleavage was 0.399.

With G35U C38G as the variant, how does the self-cleavage read?
The self-cleavage was 0.374.

For G35U C38A, which self-cleavage is on record?
Its self-cleavage is 0.404.

For A6G C11G, which self-cleavage is on record?
Its self-cleavage is 0.921.

Which self-cleavage does the source give for C3U G45A here?
Its self-cleavage is 0.468.

Which self-cleavage does the source give for C15G G27U here?
The self-cleavage was 0.339.

With C3G G36C as the variant, how does the self-cleavage read?
Its self-cleavage is 0.328.

For U21G G31U, which self-cleavage is on record?
The self-cleavage was 0.743.

For G31U G36A, which self-cleavage is on record?
Its self-cleavage is 0.482.

For U13C A41G, which self-cleavage is on record?
Its self-cleavage is 0.394.

For C11G C30U, which self-cleavage is on record?
The self-cleavage was 1.28.

With C16G G39U as the variant, how does the self-cleavage read?
Its self-cleavage is 0.345.

For U14A G39U, which self-cleavage is on record?
The self-cleavage was 0.315.

For C3A G4A, which self-cleavage is on record?
Its self-cleavage is 0.293.

For U9A A37U, which self-cleavage is on record?
The self-cleavage was 0.593.

Which self-cleavage does the source give for G18A G39A here?
The self-cleavage was 0.339.

For C38U A44G, which self-cleavage is on record?
The self-cleavage was 1.44.

Which self-cleavage does the source give for C3U G5U here?
The self-cleavage was 1.4.

For A26C A42U, which self-cleavage is on record?
Its self-cleavage is 0.393.

For G4C A6U, which self-cleavage is on record?
Its self-cleavage is 0.281.

With G8C U13C as the variant, how does the self-cleavage read?
Its self-cleavage is 1.2.

For G25C C30A, which self-cleavage is on record?
Its self-cleavage is 0.262.

Which self-cleavage does the source give for U12G G27U here?
The self-cleavage was 0.411.

With G8C C15A as the variant, how does the self-cleavage read?
The self-cleavage was 0.837.

With A37G A41G as the variant, how does the self-cleavage read?
Its self-cleavage is 0.268.

With G22A A26U as the variant, how does the self-cleavage read?
Its self-cleavage is 0.338.

With C3G G5U as the variant, how does the self-cleavage read?
Its self-cleavage is 0.305.

Which self-cleavage does the source give for U9C C29A here?
Its self-cleavage is 0.77.

For U28C A37G, which self-cleavage is on record?
Its self-cleavage is 0.914.

For A23G U24C, which self-cleavage is on record?
Its self-cleavage is 0.488.

Which self-cleavage does the source give for U12C G39A here?
The self-cleavage was 0.403.

For G27U G31U, which self-cleavage is on record?
The self-cleavage was 0.474.

Which self-cleavage does the source give for U19G G25C here?
Its self-cleavage is 0.359.

For U24G A41G, which self-cleavage is on record?
The self-cleavage was 0.308.

For C30A G36A, which self-cleavage is on record?
The self-cleavage was 0.573.

For A1G G33A, which self-cleavage is on record?
The self-cleavage was 1.53.

Which self-cleavage does the source give for A23G U32G here?
The self-cleavage was 0.366.

With A41U A44U as the variant, how does the self-cleavage read?
Its self-cleavage is 0.378.

With U12G G36C as the variant, how does the self-cleavage read?
The self-cleavage was 0.679.

With U24G C43A as the variant, how does the self-cleavage read?
The self-cleavage was 0.402.

Which self-cleavage does the source give for G5A U13G here?
Its self-cleavage is 1.72.

With G35U G39C as the variant, how does the self-cleavage read?
The self-cleavage was 0.344.
